# Measurements published in US20210395773A1, “IN VIVO CONTROLLED COMBINATION THERAPY FOR TREATMENT OF CANCER” (PRECIGEN, INC., priority 2018, published 2021).
# Marks after values point to notes of the source that are not given here.
# Tests used:
# [1] = Phase 1 Main Study: veledimex in plasma and tumor; type: in vivo, human
# Method: FIGS. 21A-21D show a series of graphs depicting veledimex, IL-12 and IFN-γ concentrations upon treatment with veledimex. […] Each symbol represents plasma from a single patient. […] Veledimex was administered to each patient approximately 3 hours before the start of the craniotomy. Serum and tumor at the time of resection were then assayed for veledimex levels.
# This study is investigating two intratumoral Ad-RTS-hIL-12 doses (2×10^11 vp or 1×10^12 vp) and escalating veledimex doses (10 mg to 40 mg) to determine the safe and tolerable dose based on the safety profiles observed in the presence of variable corticosteroid exposure. Group 1 received one veledimex dose before a standard-of-care resection procedure, Ad was administered by freehand intratumoral injection, then continued with oral V QD for 14 days. Subjects not scheduled for tumor resection (Group 2) received Ad-RTS-hIL-12 (2×10^11 vp or 1×10^12 vp) by stereotactic injection and then continued on oral veledimex for 14 days.
# [2] = Veledimex levels in blood and CSF after oral gavage (blood-brain barrier crossing); type: in vivo, C57BL/6 mice; conditions: PO 450 or 1,200 mg/m2/day; normal C57BL/6 and orthotopic GL-261 glioma mice; 24 hours post-veledimex
# Method: To generate orthotopic GL-261 glioma mice, a group of C57BL/6 mice received 1×10^5 GL-261 glioma cells via intracranial injection ˜2 mm distal to the intersection of the coronal and sagittal suture. On day 5, the animals were randomly assigned to one of the treatment groups. GL-261, a murine glioma tumor cell line, was purchased from American Type Culture Collection (Manassas, Va.).
# Veledimex was administered to normal C57BL/6 mice or orthotopic GL-261 glioma mice via oral gavage (PO) at 450 mg/m2/day or 1,200 mg/m^2/day. Terminal blood and CSF were collected for normal C57BL/6 mice or orthotopic GL-261 glioma mice after 2 days of treatment, and for orthotopic GL-261 glioma mice after 13 days of treatment.
# GL-261 medullary glioma = conditions: vehicle mOS 16 days
# Description: Ad-RTS-hIL-12 (Ad) is a recombinant, adenoviral-delivered, gene therapy for expression of interleukin-12 (IL-12) under the control of an orally administered activator ligand, veledimex (V), acting in concert with a ligand-inducible gene switch (also referred to as “RTS®”).
# [3] = system: cytotoxic T cells and Tregs in peripheral blood; assay: Phase 1 Ad+V with nivolumab in rGBM: peripheral blood flow cytometry; type: in vivo, human; conditions: after nivolumab alone
# Method: Methods: An open label, dose escalation Phase 1 study evaluating safety and tolerability of local, inducible IL-12 expression in combination with nivolumab in adult subjects with recurrent glioblastoma (rGBM) was commenced. Ad was administered by intratumoral injection (using a dose of 2×10^11 vp (2e11 vp)) along with daily veledimex (V) (at doses of 10-20 mg) QDx15 PO with nivolumab intravenous infusions (at doses of 1-3 mg/kg) at Day (−)7 (i.e., 7 days prior to administration of Ad+V), at Day 15 (after administration of Ad+V), then Q2W (i.e., once every 2-weeks).
# [4] = Phase 1 Ad+V with nivolumab in rGBM: safety (adverse events); type: in vivo, human; conditions: by relatedness
# Method: (§1) Ad was administered by intratumoral injection (using a dose of 2×10^11 vp (2e11 vp)) along with daily veledimex (V) (at doses of 10-20 mg) QDx15 PO with nivolumab intravenous infusions (at doses of 1-3 mg/kg) at Day (−)7 (i.e., 7 days prior to administration of Ad+V), at Day 15 (after administration of Ad+V), then Q2W (i.e., once every 2-weeks).
# IL-12 = assay: Phase 1 Ad+V with nivolumab in rGBM: serum IL-12; type: in vivo, human
# Method: as §1
# [5] = Cohort 1: Ad + V (10 mg) Nivolumab (1 mg/kg) N = 3
# [6] = Cohort 2: Ad + V (10 mg) Nivolumab (3 mg/kg) N = 3
# [7] = Cohort 3: Ad + V (20 mg) Nivolumab (3 mg/kg) N = 2
compound,measurement,setting,value
"CCC[C@@H](N(NC(=O)c1cccc(OC)c1CC)C(=O)c1cc(C)cc(C)c1)C(C)(C)C [veledimex, (R)—N′-(3,5-dimethylbenzoyl)-N′-(2,2-dimethylhexan-3-yl)-2-ethyl-3-methoxybenzohydrazide]",plasma and tumor V peak PK levels versus dose,[1]; V 10-40 mg,dose dependent
same,Kp,"[1]; human, tumor (relative to plasma), oral, Main Study, tumor vs plasma at resection, about 3 hours after V, read-out: V tumor penetration",~0.4
same,crossing of the blood-brain-barrier,[1]; rGBM patients,crosses the blood-brain-barrier
same,crossing of the blood-brain barrier by orally administered veledimex,[2],crosses the blood-brain barrier
Cn1nnc2c(C(N)=O)ncn2c1=O [temozolomide],mOS,GL-261 medullary glioma,25 days
Nivolumab: antibody that binds PD-1; heavy and light chains SEQ ID NO: 10 and 11,Tregs (FoxP3) at Day 0,[3]; baseline 1.5%,0.8%
same,peripheral cytotoxic T cells CD3+CD8+ at Day 0,[3]; median baseline 23%,26%
same,Related ≥ Grade 3 AEs: ALT increased,[4]; [5],0
same,Related ≥ Grade 3 AEs: Brain oedema (cerebral edema),[4]; [5],1 (33%)
same,Related ≥ Grade 3 AEs: Lipase increased,[4]; [5],0
same,Related ≥ Grade 3 AEs: Lymphocyte count Decreased,[4]; [5],0
same,Related ≥ Grade 3 AEs: ALT increased,[4]; [6],0
same,Related ≥ Grade 3 AEs: Brain oedema (cerebral edema),[4]; [6],0
same,Related ≥ Grade 3 AEs: Lipase increased,[4]; [6],1 (33%)
same,Related ≥ Grade 3 AEs: Lymphocyte count Decreased,"[4]; Cohort 2: Ad + V (10 mg) Nivolumab (3 mg/kg) N = 3, one AE related to both",1 (33%)*
same,Related ≥ Grade 3 AEs: ALT increased,[4]; [7],0
same,Related ≥ Grade 3 AEs: Brain oedema (cerebral edema),[4]; [7],0
same,Related ≥ Grade 3 AEs: Lipase increased,[4]; [7],0
same,Related ≥ Grade 3 AEs: Lymphocyte count Decreased,[4]; [7],0
same,related SAEs,[4]; Cohorts 1-3,One SAE of brain oedema (cerebral edema) was considered related to nivolumab alone
same,peripheral IL-12 at Day 0 (median),"IL-12; after nivolumab alone (Day -7 dose), median baseline 0.9 pg/ml",1.0 pg/mL
same,impact of pre-dosing on cytokine levels prior to Ad+V,IL-12; nivolumab Day -7,did not have an impact on cytokine levels
